Four molecules from paper PMC3784475 (PLoS Pathogens, 2013) can be followed below.

For test [1], the target named is HIV gp140 SF162 trimers (HIV (isolate SF162)). Nature of the test: SPR; HIV gp140 SF162 trimers amine-coupled on a CM5 chip (3250 RU); HCDR3-grafted Ubq fusions injected at 1 µM and 5 or 10 µM; HBS-EP+ (10 mM HEPES pH 7.4, 150 mM NaCl, 3 mM EDTA, 0.05% P20); 25°C; duplicate runs.
The target of another test is T1, Strep-tagged Scn control (Homo sapiens, UniProt P80188).
T1 construct: siderocalin (Scn), human; also called siderocalin construct minus peptide; not shown: Strep-tag, C-terminal, kept
Nature of the test: SPR; about 3000 RU of each Scn-peptide fusion or Strep-tagged Scn control amine-coupled on CM5 chips; 4E10 IgG injected at 300 nM in HBS-EP+ or HBS-EP+ at 500 mM NaCl; 25°C; responses normalised by specific activity. The conditions noted are these: both partners purified. Background: In SPR one partner is held on a chip, and binding of the other changes the refractive index at the surface.

With “4E10 HCDR3-grafted ubiquitin fusion (designed binder)”, in test [1], the Kd (in general, a measure of binding affinity in units of concentration) was greater than 10 µM. “b12 HCDR3-grafted ubiquitin fusion (designed binder)” came in with a Kd in test [1] greater than 10 µM. In test [1], “2F5 HCDR3-grafted ubiquitin fusion (designed binder)” had a Kd greater than 10 µM.

B1: 4E10 IgG (antibody, V domains shown)
VH: QVQLVQSGAEVKRPGSSVTVSCKASGGSFSTYALSWVRQAPGRGLEWMGGVIPLLTITNYAPRFQGRITITADRSTSTAYLELNSLRPEDTAVYYCAREGTTGWGWLGKPIGAFAHWGQGTLVTVSS
VL: EIVLTQSPGTQSLSPGERATLSCRASQSVGNNKLAWYQQRPGQAPRLLIYGASSRPSGVADRFSGSGSGTDFTLTISRLEPEDFAVYYCQQYGQSLSTFGQGTKVEVK
notes: variable domain in PDB 4LLV (4E10 Fv, solved here), 2FX7 (4E10 Fab) and 3H3P; IgG, the bivalent form; also called bNAb 4E10; Polymun AB004; source: bought: Polymun Scientific; copies: 2 + 2
With B1, the binding result with Strep-tagged Scn control is given as “no binding (tested: 300 nM)”.
